Experimental findings from patent publication US20010018511A1 (CANCER RESEARCH CAMPAIGN TECHNOLOGY, published 2001) are described below.

This assay has as its target T1, GST-hdm2 (1-188) (S. japonicum; human, UniProt Q00987 1-188).
T1 construct: range 1-188; Fusion made in E. coli BL21 from pGEX-2T; GST, linker, hdm2 1-188 in this order; also called GST-hdm2 protein
The assay can be described thus: single clone phage ELISA on coated antigen. The protocol:
Amplified and purified phages from this round of biopanning are tested in an ELISA on the proteins used for their selection. For single clone screening E.coli K91 cells are infected with appropriate phage dilutions and spread on LB agar with 20 μg/ml tetracycline. Single colonies are transfered to wells of a 96-well tissue culture plate containing 200 μl 2×YT medium with 20 μg/ml tetracycline per well. Phage supernatant is collected for ELISA screening after a 24 hour incubation at 37° C. with shaking. ELISA positive clones are grown up as 2 ml bacterial cultures in 2×YT medium with 20 μg/ml tetracycline for 24 hours. Phage are PEG precipitated and redissolved in 200 μl TBS buffer. Phage DNA is extracted with phenol/chloroform and ethanol precipitated. The DNA pellet is redissolved in 10 μl water and used as template for sequencing (Sequenase).
100 μl phage suspension (supernatant or PEG concentrated phage) is diluted in PBST-M and added for three hours at 4° C. Bound phages are reacted with 100 μl HRP-labelled sheep anti-M13 antibody (Pharmacia) for one hour at room temperature followed by substrate development with 100 μl TMB/H202 (0.1 mg/ml TMB, 0.3% H₂O₂ in 0.1 M Na-acetate, pH 6.0) for 15 min. The reaction is stopped by adding 100 μl 1 M sulphuric acid to the substrate and the absorbance is measured at 450 nm. All washings between the incubation steps are done with tap water.

T1 sequence (Q00987 1-188): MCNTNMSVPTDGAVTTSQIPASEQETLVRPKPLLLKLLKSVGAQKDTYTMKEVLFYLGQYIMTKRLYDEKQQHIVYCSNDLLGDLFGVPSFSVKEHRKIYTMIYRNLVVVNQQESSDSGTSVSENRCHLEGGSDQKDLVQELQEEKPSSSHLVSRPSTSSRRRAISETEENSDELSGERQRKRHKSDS

B1: phage clone 12/1 (peptide)
chain: MPRFMDYWEGLN
notes: Tested as whole phage showing the peptide; not shown: minor coat protein III of the filamentous phage of the display library; the peptide stands at its N-terminus; phage stra
Regarding B1, the binding result is recorded as “binds”.

B2: phage clone 15/1 (peptide)
chain: IDRAPTFRDHWFALV
notes: as for B1
As for B2, the binding result is listed as “binds”.

B3: phage clone 15/5 (peptide)
chain: PRPALVFADYWETLY
notes: as for B1
Regarding B3, the binding result is on record as “binds”.

B4: phage clone 12/2 (peptide)
chain: VQNFIDYWTQQF
notes: as for B1
Consider B4, for which the binding result is listed as “binds”.

B5: phage clone BB3 (peptide)
chain: PAFSRFWSDLSAGAH
notes: Tested as whole phage showing the peptide; also called hdm2 phage; hdm2-phage; not shown: minor coat protein III of the filamentous phage of the display library; the peptide stands at its N-terminus; phage stra
As to B5, the binding result is given as “binds”.

B6: phage clone 12/5 (peptide)
chain: TGPAFTHYWATF
notes: as for B1
As to B6, the binding result is reported as “binds”.
